The values below come from US20130315910A1 (Xencor, published 2013).

In test [1] the target is T1, human FcγRIIa (131R), His- and GST-tagged (human, UniProt P12318 34-217).
T1 construct: Expressed in HEK293T cells, purified by nickel chromatography; also called R131 FcγRIIa; not shown: 6xHis and GST tags of the pTT5 vector
T1 sequence (looked up): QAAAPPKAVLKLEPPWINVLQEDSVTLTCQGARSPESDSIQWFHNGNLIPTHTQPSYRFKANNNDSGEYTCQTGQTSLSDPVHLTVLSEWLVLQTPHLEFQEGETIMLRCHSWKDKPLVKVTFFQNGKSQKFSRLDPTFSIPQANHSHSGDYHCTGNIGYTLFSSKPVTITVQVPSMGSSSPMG
Kind of test: SPR. How it is done:
(§1) Variants were screened for receptor affinity using Biacore™ technology, also referred to as Biacore herein, a surface plasmon resonance (SPR) based technology for studying biomolecular interactions in real time. SPR measurements were performed using a Biacore 3000 instrument (Biacore, Piscataway, N.J.). A protein A/G (Pierce Biotechnology) CM5 biosensor chip (Biacore) was generated using a standard primary amine coupling protocol. All measurements were performed using HBS-EP buffer (10 mM HEPES pH 7.4, 0.15 M NaCl, 3 mM EDTA, 0.005% vol/vol surfactant P20, Biacore). Antibodies at 20 nM or 50 nM in HBS-EP buffer were immobilized on the protein A/G surface and FcγRs were injected. After each cycle, the surface was regenerated by injecting glycine buffer (10 mM, pH 1.5). Data were processed by zeroing time and response before the injection of FcγR and by subtracting appropriate nonspecific signals (response of reference channel and injection of running buffer). Kinetic analyses were performed by global fitting of binding data with a 1:1 Langmuir binding model using BIAevaluation software (Biacore).
A general note: Surface plasmon resonance follows binding to a sensor surface in real time, without labels.

Test [2] deals with T2, human FcγRIIb receptor protein (R&D Systems) (human, UniProt P31994 46-217).
T2 construct: Bought protein injected over captured antibody in Biacore; also called CD32b
T2 sequence (looked up): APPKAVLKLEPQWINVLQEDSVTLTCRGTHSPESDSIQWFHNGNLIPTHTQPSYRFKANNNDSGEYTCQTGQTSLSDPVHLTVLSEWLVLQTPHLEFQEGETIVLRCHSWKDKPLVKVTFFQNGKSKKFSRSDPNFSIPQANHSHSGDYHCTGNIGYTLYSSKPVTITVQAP
Briefly: SPR. On the procedure: as §1

B1: G237L (antibody, human IgG1, kappa)
heavy: not shown
light: DIVMTQSPATLSLSPGERATLSCRSSKSLQNVNGNTYLYWFQQKPGQSPQLLIYRMSNLNSGVPDRFSGSGSGTEFTLTISSLEPEDFAVYYCMQHLEYPITFGAGTKLEIKRTVAAPSVFIFPPSDEQLKSGTASVVCLLNNFYPREAKVQWKVDNALQSGNSQESVTEQDSKDSTYSLSSTLTLSKADYEKHKVYACEVTHQGLSSPVTKSFNRGEC
notes: HuAM4G7 anti-CD19 IgG1 (m1) with this Fc substitution, EU index; copies: 2 + 2
With B1, the binding result in test [1] and in test [2] was “no binding” each time.

B2: L234P (antibody, human IgG1, kappa)
heavy: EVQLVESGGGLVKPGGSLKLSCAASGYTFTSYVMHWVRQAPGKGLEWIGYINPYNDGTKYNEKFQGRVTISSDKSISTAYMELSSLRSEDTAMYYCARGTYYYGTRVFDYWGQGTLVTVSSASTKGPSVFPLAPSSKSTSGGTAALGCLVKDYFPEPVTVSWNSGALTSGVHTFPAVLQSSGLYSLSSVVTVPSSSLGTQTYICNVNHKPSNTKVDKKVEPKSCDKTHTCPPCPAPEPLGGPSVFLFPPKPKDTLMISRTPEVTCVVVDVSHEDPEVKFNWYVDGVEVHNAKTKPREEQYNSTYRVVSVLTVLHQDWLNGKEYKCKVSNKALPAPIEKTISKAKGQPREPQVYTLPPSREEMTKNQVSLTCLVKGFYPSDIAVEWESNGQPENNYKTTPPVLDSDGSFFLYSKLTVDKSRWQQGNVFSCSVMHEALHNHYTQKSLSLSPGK
light: DIVMTQSPATLSLSPGERATLSCRSSKSLQNVNGNTYLYWFQQKPGQSPQLLIYRMSNLNSGVPDRFSGSGSGTEFTLTISSLEPEDFAVYYCMQHLEYPITFGAGTKLEIKRTVAAPSVFIFPPSDEQLKSGTASVVCLLNNFYPREAKVQWKVDNALQSGNSQESVTEQDSKDSTYSLSSTLTLSKADYEKHKVYACEVTHQGLSSPVTKSFNRGEC
notes: as for B1
The Kd is the equilibrium constant for the complex coming apart. Higher therefore signals weaker binding. Take B2: the “Fold vs WT IgG1” value was found to be 0.0141 fold in test [1] and 0.0644 fold in test [2]. For the same molecule, the results for the Kd in test [1] and in test [2] were 60.7 µM and 22.8 µM, respectively.

B3: L235T/S267E (antibody, human IgG1, kappa)
heavy: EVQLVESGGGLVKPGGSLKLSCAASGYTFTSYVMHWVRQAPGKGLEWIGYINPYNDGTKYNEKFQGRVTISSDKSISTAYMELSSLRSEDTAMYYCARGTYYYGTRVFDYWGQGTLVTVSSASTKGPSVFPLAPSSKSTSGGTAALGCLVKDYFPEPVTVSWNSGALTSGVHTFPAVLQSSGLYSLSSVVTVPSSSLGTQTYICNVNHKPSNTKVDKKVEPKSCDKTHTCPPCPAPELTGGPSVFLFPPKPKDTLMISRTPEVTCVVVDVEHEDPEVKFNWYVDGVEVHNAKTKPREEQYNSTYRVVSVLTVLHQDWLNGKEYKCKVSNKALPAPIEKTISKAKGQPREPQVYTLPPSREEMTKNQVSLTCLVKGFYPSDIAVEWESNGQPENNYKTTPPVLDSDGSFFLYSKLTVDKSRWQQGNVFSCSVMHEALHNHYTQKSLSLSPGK
light: DIVMTQSPATLSLSPGERATLSCRSSKSLQNVNGNTYLYWFQQKPGQSPQLLIYRMSNLNSGVPDRFSGSGSGTEFTLTISSLEPEDFAVYYCMQHLEYPITFGAGTKLEIKRTVAAPSVFIFPPSDEQLKSGTASVVCLLNNFYPREAKVQWKVDNALQSGNSQESVTEQDSKDSTYSLSSTLTLSKADYEKHKVYACEVTHQGLSSPVTKSFNRGEC
notes: HuAM4G7 anti-CD19 IgG1 (m1) with these Fc substitutions, EU index; copies: 2 + 2
As to B3, in test [1], the “Fold vs WT IgG1” value came out at 3.06 fold and binding was characterised by a dissociation constant (Kd) of 0.281 µM. Moreover, in test [2], the “Fold vs WT IgG1” value was found to be 2.37 fold and the affinity, expressed as Kd, was 0.619 µM.

B4: L234I (antibody, human IgG1, kappa)
heavy: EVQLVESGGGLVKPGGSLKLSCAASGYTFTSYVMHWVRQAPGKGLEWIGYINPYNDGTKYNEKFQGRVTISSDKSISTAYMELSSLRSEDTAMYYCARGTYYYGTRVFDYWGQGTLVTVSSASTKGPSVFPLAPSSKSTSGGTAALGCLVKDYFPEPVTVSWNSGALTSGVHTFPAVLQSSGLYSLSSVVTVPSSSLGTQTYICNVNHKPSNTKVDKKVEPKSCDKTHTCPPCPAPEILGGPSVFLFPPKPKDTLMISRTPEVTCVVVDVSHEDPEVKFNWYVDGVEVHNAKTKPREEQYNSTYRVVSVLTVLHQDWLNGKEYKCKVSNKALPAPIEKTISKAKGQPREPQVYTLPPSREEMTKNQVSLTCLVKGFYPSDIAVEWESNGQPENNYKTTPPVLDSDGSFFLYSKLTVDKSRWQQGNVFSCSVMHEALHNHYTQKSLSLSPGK
light: DIVMTQSPATLSLSPGERATLSCRSSKSLQNVNGNTYLYWFQQKPGQSPQLLIYRMSNLNSGVPDRFSGSGSGTEFTLTISSLEPEDFAVYYCMQHLEYPITFGAGTKLEIKRTVAAPSVFIFPPSDEQLKSGTASVVCLLNNFYPREAKVQWKVDNALQSGNSQESVTEQDSKDSTYSLSSTLTLSKADYEKHKVYACEVTHQGLSSPVTKSFNRGEC
notes: as for B1
As to B4, in test [1], the “Fold vs WT IgG1” value is 0.0554 fold and the Kd turned out to be 15.5 µM. Moreover, in test [2], the “Fold vs WT IgG1” value is 0.108 fold and binding was characterised by a dissociation constant (Kd) of 13.6 µM.

B5: L234F/G236N (antibody, human IgG1, kappa)
heavy: not shown
light: DIVMTQSPATLSLSPGERATLSCRSSKSLQNVNGNTYLYWFQQKPGQSPQLLIYRMSNLNSGVPDRFSGSGSGTEFTLTISSLEPEDFAVYYCMQHLEYPITFGAGTKLEIKRTVAAPSVFIFPPSDEQLKSGTASVVCLLNNFYPREAKVQWKVDNALQSGNSQESVTEQDSKDSTYSLSSTLTLSKADYEKHKVYACEVTHQGLSSPVTKSFNRGEC
notes: as for B3
In the case of B5, the binding result in test [1] and in test [2] was “no binding” throughout.

B6: G237Q (antibody, human IgG1, kappa)
heavy: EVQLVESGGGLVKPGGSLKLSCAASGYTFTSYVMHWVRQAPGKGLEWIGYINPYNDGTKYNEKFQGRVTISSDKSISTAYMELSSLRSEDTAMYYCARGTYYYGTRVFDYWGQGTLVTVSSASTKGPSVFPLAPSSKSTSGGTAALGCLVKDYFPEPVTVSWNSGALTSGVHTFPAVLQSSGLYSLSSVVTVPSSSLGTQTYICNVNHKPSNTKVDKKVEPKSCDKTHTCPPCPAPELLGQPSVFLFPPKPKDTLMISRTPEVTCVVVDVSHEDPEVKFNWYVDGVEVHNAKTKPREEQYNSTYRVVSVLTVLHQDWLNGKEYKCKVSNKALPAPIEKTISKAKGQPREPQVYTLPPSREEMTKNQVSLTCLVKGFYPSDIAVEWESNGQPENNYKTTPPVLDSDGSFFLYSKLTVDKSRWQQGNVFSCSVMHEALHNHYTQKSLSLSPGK
light: DIVMTQSPATLSLSPGERATLSCRSSKSLQNVNGNTYLYWFQQKPGQSPQLLIYRMSNLNSGVPDRFSGSGSGTEFTLTISSLEPEDFAVYYCMQHLEYPITFGAGTKLEIKRTVAAPSVFIFPPSDEQLKSGTASVVCLLNNFYPREAKVQWKVDNALQSGNSQESVTEQDSKDSTYSLSSTLTLSKADYEKHKVYACEVTHQGLSSPVTKSFNRGEC
notes: as for B1
Consider B6, for which the results for the “Fold vs WT IgG1” value in test [1] and in test [2] were 0.0859 fold and 0.147 fold, respectively. The Kd in test [1] and in test [2] was 10 µM in each case.

B7: L235S (antibody, human IgG1, kappa)
heavy: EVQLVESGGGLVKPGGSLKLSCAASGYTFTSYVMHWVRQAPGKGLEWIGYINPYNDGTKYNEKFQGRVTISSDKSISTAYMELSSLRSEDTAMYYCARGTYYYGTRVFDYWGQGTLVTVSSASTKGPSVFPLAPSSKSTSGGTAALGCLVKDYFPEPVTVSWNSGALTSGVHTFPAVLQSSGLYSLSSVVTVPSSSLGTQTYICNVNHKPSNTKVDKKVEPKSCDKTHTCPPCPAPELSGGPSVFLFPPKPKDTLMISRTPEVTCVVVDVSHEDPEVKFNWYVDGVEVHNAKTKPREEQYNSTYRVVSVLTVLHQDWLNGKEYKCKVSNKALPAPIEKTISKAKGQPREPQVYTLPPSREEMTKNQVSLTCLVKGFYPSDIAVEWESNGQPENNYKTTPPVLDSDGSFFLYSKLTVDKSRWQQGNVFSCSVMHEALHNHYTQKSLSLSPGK
light: DIVMTQSPATLSLSPGERATLSCRSSKSLQNVNGNTYLYWFQQKPGQSPQLLIYRMSNLNSGVPDRFSGSGSGTEFTLTISSLEPEDFAVYYCMQHLEYPITFGAGTKLEIKRTVAAPSVFIFPPSDEQLKSGTASVVCLLNNFYPREAKVQWKVDNALQSGNSQESVTEQDSKDSTYSLSSTLTLSKADYEKHKVYACEVTHQGLSSPVTKSFNRGEC
notes: as for B1
Take B7: the “Fold vs WT IgG1” value in test [1] came out at 0.00859 fold; in test [2], 0.0147 fold. In addition, the Kd in test [1] and in test [2] was 100 µM in each case.

B8: G237Y (antibody, human IgG1, kappa)
heavy: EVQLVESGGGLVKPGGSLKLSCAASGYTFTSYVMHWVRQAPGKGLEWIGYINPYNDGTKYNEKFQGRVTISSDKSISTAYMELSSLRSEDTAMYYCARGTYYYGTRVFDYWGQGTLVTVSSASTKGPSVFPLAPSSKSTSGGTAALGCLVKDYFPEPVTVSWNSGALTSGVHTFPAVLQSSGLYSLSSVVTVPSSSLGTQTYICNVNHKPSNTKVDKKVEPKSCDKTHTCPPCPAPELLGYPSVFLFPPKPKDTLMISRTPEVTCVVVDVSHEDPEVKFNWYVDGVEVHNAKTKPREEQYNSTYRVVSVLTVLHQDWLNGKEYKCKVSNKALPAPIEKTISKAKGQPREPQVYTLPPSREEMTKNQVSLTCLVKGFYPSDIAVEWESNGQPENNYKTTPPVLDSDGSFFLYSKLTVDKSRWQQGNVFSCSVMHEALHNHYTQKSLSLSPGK
light: DIVMTQSPATLSLSPGERATLSCRSSKSLQNVNGNTYLYWFQQKPGQSPQLLIYRMSNLNSGVPDRFSGSGSGTEFTLTISSLEPEDFAVYYCMQHLEYPITFGAGTKLEIKRTVAAPSVFIFPPSDEQLKSGTASVVCLLNNFYPREAKVQWKVDNALQSGNSQESVTEQDSKDSTYSLSSTLTLSKADYEKHKVYACEVTHQGLSSPVTKSFNRGEC
notes: as for B1
As for B8, in test [1], the “Fold vs WT IgG1” value is 0.902 fold and binding was put at a Kd of 0.952 µM. In test [2], the “Fold vs WT IgG1” value stood at 0.33 fold and binding was characterised by a dissociation constant (Kd) of 4.45 µM.

B9: L235Q (antibody, human IgG1, kappa)
heavy: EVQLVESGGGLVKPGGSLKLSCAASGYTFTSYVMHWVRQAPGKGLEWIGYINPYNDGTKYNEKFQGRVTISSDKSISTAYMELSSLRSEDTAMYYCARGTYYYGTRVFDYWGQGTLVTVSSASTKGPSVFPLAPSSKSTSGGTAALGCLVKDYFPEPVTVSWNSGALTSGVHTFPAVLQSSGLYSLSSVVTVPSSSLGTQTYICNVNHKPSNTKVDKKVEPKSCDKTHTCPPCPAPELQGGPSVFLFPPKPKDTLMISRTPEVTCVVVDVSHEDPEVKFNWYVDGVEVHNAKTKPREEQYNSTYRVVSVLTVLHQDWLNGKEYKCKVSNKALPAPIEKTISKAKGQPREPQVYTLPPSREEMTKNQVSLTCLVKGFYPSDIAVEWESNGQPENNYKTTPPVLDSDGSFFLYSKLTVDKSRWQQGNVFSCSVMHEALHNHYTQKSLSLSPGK
light: DIVMTQSPATLSLSPGERATLSCRSSKSLQNVNGNTYLYWFQQKPGQSPQLLIYRMSNLNSGVPDRFSGSGSGTEFTLTISSLEPEDFAVYYCMQHLEYPITFGAGTKLEIKRTVAAPSVFIFPPSDEQLKSGTASVVCLLNNFYPREAKVQWKVDNALQSGNSQESVTEQDSKDSTYSLSSTLTLSKADYEKHKVYACEVTHQGLSSPVTKSFNRGEC
notes: as for B1
With B9, in test [1], the “Fold vs WT IgG1” value is 2.04 fold and the Kd was 0.42 µM. Further, in test [2], the binding result was “no binding”.

B10: G237V (antibody, human IgG1, kappa)
heavy: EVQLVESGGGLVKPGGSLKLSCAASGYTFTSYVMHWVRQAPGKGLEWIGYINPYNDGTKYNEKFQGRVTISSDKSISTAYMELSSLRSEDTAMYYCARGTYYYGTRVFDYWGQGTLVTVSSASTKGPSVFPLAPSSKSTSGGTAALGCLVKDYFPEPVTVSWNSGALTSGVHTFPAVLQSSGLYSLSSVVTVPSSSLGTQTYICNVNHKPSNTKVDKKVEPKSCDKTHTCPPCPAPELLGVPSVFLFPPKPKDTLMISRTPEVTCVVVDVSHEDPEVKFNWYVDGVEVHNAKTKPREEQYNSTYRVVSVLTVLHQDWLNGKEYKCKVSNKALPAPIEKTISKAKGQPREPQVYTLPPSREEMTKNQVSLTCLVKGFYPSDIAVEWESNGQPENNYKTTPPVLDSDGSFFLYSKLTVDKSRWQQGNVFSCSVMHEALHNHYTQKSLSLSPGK
light: DIVMTQSPATLSLSPGERATLSCRSSKSLQNVNGNTYLYWFQQKPGQSPQLLIYRMSNLNSGVPDRFSGSGSGTEFTLTISSLEPEDFAVYYCMQHLEYPITFGAGTKLEIKRTVAAPSVFIFPPSDEQLKSGTASVVCLLNNFYPREAKVQWKVDNALQSGNSQESVTEQDSKDSTYSLSSTLTLSKADYEKHKVYACEVTHQGLSSPVTKSFNRGEC
notes: as for B1
For the molecule B10, in test [1], the “Fold vs WT IgG1” value was determined as 0.0342 fold and binding was characterised by a dissociation constant (Kd) of 25.1 µM. In addition, in test [2], the “Fold vs WT IgG1” value came to 0.147 fold and the Kd came to 10 µM.

B11: L234S (antibody, human IgG1, kappa)
heavy: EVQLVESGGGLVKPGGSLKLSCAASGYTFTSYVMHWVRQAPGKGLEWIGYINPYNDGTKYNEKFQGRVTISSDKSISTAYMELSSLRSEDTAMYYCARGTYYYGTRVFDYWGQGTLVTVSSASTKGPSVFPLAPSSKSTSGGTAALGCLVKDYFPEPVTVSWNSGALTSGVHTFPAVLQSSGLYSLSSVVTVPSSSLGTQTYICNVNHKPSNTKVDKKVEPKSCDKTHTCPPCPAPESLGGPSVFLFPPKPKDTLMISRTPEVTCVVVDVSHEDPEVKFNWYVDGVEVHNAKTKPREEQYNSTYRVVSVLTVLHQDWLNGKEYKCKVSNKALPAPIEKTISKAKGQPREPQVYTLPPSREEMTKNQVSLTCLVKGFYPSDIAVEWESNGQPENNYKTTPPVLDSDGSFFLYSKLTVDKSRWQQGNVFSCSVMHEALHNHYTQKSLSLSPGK
light: DIVMTQSPATLSLSPGERATLSCRSSKSLQNVNGNTYLYWFQQKPGQSPQLLIYRMSNLNSGVPDRFSGSGSGTEFTLTISSLEPEDFAVYYCMQHLEYPITFGAGTKLEIKRTVAAPSVFIFPPSDEQLKSGTASVVCLLNNFYPREAKVQWKVDNALQSGNSQESVTEQDSKDSTYSLSSTLTLSKADYEKHKVYACEVTHQGLSSPVTKSFNRGEC
notes: as for B1
B11: in test [1], the “Fold vs WT IgG1” value was 0.693 fold and the dissociation constant (Kd) worked out at 1.24 µM. Moreover, in test [2], the “Fold vs WT IgG1” value was found to be 0.192 fold and the dissociation constant (Kd) came out at 7.64 µM.

B12: L234V (antibody, human IgG1, kappa)
heavy: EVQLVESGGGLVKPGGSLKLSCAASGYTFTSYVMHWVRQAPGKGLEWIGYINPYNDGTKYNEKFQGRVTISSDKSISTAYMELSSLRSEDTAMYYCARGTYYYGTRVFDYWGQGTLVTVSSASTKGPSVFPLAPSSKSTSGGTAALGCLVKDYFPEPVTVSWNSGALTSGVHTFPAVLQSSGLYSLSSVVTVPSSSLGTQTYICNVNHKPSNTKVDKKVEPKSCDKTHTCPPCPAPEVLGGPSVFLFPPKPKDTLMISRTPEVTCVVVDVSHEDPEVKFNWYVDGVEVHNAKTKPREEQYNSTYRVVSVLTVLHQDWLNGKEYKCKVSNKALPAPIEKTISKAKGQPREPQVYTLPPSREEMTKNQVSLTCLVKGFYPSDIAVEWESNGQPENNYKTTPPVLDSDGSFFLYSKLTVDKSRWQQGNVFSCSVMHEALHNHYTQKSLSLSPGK
light: DIVMTQSPATLSLSPGERATLSCRSSKSLQNVNGNTYLYWFQQKPGQSPQLLIYRMSNLNSGVPDRFSGSGSGTEFTLTISSLEPEDFAVYYCMQHLEYPITFGAGTKLEIKRTVAAPSVFIFPPSDEQLKSGTASVVCLLNNFYPREAKVQWKVDNALQSGNSQESVTEQDSKDSTYSLSSTLTLSKADYEKHKVYACEVTHQGLSSPVTKSFNRGEC
notes: as for B1
On to B12, for which, in test [1], the “Fold vs WT IgG1” value amounted to 0.134 fold and the Kd turned out to be 6.42 µM. For the same molecule, in test [2], the “Fold vs WT IgG1” value is 0.456 fold and the Kd was 3.22 µM.

B13: L235P (antibody, human IgG1, kappa)
heavy: not shown
light: DIVMTQSPATLSLSPGERATLSCRSSKSLQNVNGNTYLYWFQQKPGQSPQLLIYRMSNLNSGVPDRFSGSGSGTEFTLTISSLEPEDFAVYYCMQHLEYPITFGAGTKLEIKRTVAAPSVFIFPPSDEQLKSGTASVVCLLNNFYPREAKVQWKVDNALQSGNSQESVTEQDSKDSTYSLSSTLTLSKADYEKHKVYACEVTHQGLSSPVTKSFNRGEC
notes: as for B1
For the molecule B13, in test [1], the “Fold vs WT IgG1” value was determined as 0.122 fold and binding was put at a Kd of 7.01 µM. Further, in test [2], the “Fold vs WT IgG1” value was 0.00585 fold and the Kd came out at 251 µM.

B14: G237P (antibody, human IgG1, kappa)
heavy: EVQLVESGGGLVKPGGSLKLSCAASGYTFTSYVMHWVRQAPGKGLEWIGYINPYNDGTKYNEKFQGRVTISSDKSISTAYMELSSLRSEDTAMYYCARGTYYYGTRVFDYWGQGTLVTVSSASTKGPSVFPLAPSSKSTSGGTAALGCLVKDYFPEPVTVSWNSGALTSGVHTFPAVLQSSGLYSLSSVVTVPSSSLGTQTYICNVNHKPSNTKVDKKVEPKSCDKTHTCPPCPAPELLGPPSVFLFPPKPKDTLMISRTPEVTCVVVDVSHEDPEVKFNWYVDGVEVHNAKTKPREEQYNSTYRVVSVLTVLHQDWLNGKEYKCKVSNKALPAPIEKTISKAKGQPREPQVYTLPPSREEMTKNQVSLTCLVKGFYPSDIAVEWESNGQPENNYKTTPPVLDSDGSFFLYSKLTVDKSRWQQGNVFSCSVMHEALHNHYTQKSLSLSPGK
light: DIVMTQSPATLSLSPGERATLSCRSSKSLQNVNGNTYLYWFQQKPGQSPQLLIYRMSNLNSGVPDRFSGSGSGTEFTLTISSLEPEDFAVYYCMQHLEYPITFGAGTKLEIKRTVAAPSVFIFPPSDEQLKSGTASVVCLLNNFYPREAKVQWKVDNALQSGNSQESVTEQDSKDSTYSLSSTLTLSKADYEKHKVYACEVTHQGLSSPVTKSFNRGEC
notes: as for B1
Consider B14, for which the “Fold vs WT IgG1” value in test [1] came out at 0.00859 fold; in test [2] it was 0.0147 fold. In addition, the equilibrium dissociation constant (Kd) in test [1] and in test [2] was 100 µM in each case.
